Measurements reported in US20180327723A1, “Production of Glycosylated Nootkatol in Recombinant Hosts” (Evolva SA, priority 2015, published 2018).

Legend:
[1] = system: wild-type MATa strain ATCC 28383; experiment: Growth-inhibitory effect on yeast, cell viability by plating (CFU); type: cell-based, S. cerevisiae; details: 0.125 g/L, 5 h of exposure, plated on YPD
Procedure: A 20 mL seed culture of wild-type MATa strain ATCC 28383 was grown in SD-THUL medium (0.67 Bacto yeast nitrogen base without amino acids, 2% glucose, 0.14% yeast synthetic drop-out medium without uracil, tryptophan, histidine and leucine). The culture was grown for 24 h, and 2.5 mL of the culture was used to inoculate 7 equal batches of 50 mL fermentation medium (2% (NH4)2SO4, 2% KH2PO4, 0.1% NaCl, 0.6% MgSO4.7H2O, 0.4% yeast extract, 1 mL mineral solution [FeSO4.7H2O 0.028%, ZnSO4.7H2O 0.029%, CuSO4.5H2O 0.008%, Na2MoO4.2H2O 0.024%, CoCl2.6H2O 0.024%, MnSO4.H2O 0.017%, HCl 1 mL], 0.5 mL 50% glucose, 1.5 mL vitamin solution [biotin 0.001%, Ca-pantothenate 0.012%, inositol 0.06%, pyridoxine-HCl 0.012%, thiamine-HCl 0.012%], and 0.5 mL 10% CaCl2) in 250 mL baffled Ehrlenmeyer flasks.
In 6 flasks, nootkatol or glycosylated nootkatol (nootkatol+1 glucose) were added in final concentrations of 0.06, 0.125, and 0.5 g/L. The 7th flask was used as a control and was not treated with nootkatol or glycosylated nootkatol. The cultures were grown at 28° C. and 170 rpm, and the cell viability was measured after 5 h of exposure by plating 100 μL of 1/1000 dilution of cell culture on yeast extract peptone dextrose (YPD) plates.

yeast = details: Gavira et al., 2013, Metab Eng. 18:25-35; cited from earlier work
[2] = In vitro glycosylation of nootkatol by purified UGTs with UDP-glucose, LC-MS; type: biochemical; details: 5 mM nootkatol, 15 mM UDP-glucose, 5 μL purified enzyme, overnight at 30° C.
From the text: UGT85A1 (SEQ ID NO:9, SEQ ID NO:10), UGT76E1 (SEQ ID NO:11, SEQ ID NO:12), UGT73E1 (SEQ ID NO:13, SEQ ID NO:14), UGT73C3 (SEQ ID NO:15, SEQ ID NO:16), and UGT76E12 (SEQ ID NO:17, SEQ ID NO:18) were each cloned into a T7 promoter-based vector comprising a sequence coding for an N-terminal 6×His-tag. The vector backbone was linearized with restriction endonucleases, the UGT genes were amplified by PCR, and the constructs were verified by DNA sequencing.
Competent E. coli expression cells were transformed individually with a UGT-comprising plasmid. A colony from each transformation was inoculated individually in 6 mL NZCYM broth comprising an antibiotic. The pre-culture was incubated overnight at 37° C. and 220 rpm and used to inoculate 100 mL NZYCM broth with an antibiotic at an initial OD600 of 0.2. After growth at 37° C. until an OD600 of 0.6-0.8, the cells were induced for protein expression using 0.2 mM IPTG, followed by incubation at 20° C. and 120 rpm for 18-20 h.
Cells were harvested by centrifugation at approximately 4° C. and approximately 4000 g for 20 min and resuspended in 3 mL 10 mM Tris-HCl, pH 8.0 plus protease inhibitor. After cell disruption, 6 mL 1×HIS binding buffer (20 mM Tris-HCl, pH 7.5, 500 mM NaCl, and 10 mM imidazole) were added to the suspension. Cell crude extracts were centrifuged at 4° C. and approximately 4000 g for 30 min. The supernatant was collected, and 300 μL of nickel beads were added; the mixture was incubated with gentle mixing at 4° C. for 2 h. The mixture was centrifuged at 4° C. and approximately 1000 g for 3 min, the supernatant was removed, and the beads were resuspended with 3 mL 1×HIS binding buffer. This step was performed twice. The beads were then resuspended and mixed gently in 500 μL 1×HIS Binding Buffer. The mixture was then transferred into a cold Eppendorf tube, centrifuged at 4° C. and approximately 1000 g, and the supernatant was removed. The beads were resuspended in 400 μL elution buffer (20 mM Tris-HCl, pH 7.5, 500 mM NaCl, 250 mM imidazole), mixed gently, centrifuged at 4° C. and approximately 1000 g for 3 min, and the supernatant was collected. This step was performed three times to collect three elution fractions. Glycerol was added in a 1:1 ratio to each elution tube and protein solutions were stored at −80° C. The fractions were analyzed by SDS-PAGE and Western Blot. The fraction comprising the UGT with the highest purity was used for the subsequent in vitro assay.
UGT85A1 (SEQ ID NO:9, SEQ ID NO:10), UGT76E1 (SEQ ID NO:11, SEQ ID NO:12), UGT73E1 (SEQ ID NO:13, SEQ ID NO:14), UGT73C3 (SEQ ID NO:15, SEQ ID NO:16), and UGT76E12 (SEQ ID NO:17, SEQ ID NO:18) were employed for in vitro glycosylation of nootkatol in the presence of the sugar donor, UDP-glucose. The reaction was carried out in a final volume of 50 μL buffer (100 mM Tris, pH 8.0, 5 mM MgCl2, 1 mM KCl), 5 mM nootkatol in DMSO, 15 mM UDP-glucose, and 5 μL purified enzyme solution. The reaction was incubated overnight at 30° C. The sample was analyzed by LC-MS on a BEH C18-column (100 mm×2.1 mm, 5 μm). Mobile phase A was 0.1% formic acid in water; mobile phase B was 0.1% formic acid in acetonitrile. B concentration gradient was 0-1 min, 1%; 1-5 min, 100%; 5-7 min, 100%; 7-7.1 min, 1%; 7.1-9 min, 1%. The injection volume was 5 μL. […]

C=C(C)C1CCC2=CC(O)CC(C)C2(C)C1 (centres unmarked) [nootkatol, 2,3,4,4a,5,6,7,8-octahydro-6-isopropenyl-4,4a-dimethyl-2-naphtalenol]
cell death [1]: ~99% | cellular toxicity in yeast (yeast): cellular toxicity

C=C(C)[C@@H]1CCC2=CC(=O)C[C@@H](C)[C@]2(C)C1 [nootkatone, 4,4a,5,6,7,8-hexahydro-6-isopropenyl-4,4a-dimethyl-2(3H)-napthalenone]
cellular toxicity in yeast (yeast): cellular toxicity

B1: UGT73C3: UDP-glycosyltransferase, Arabidopsis thaliana, SEQ ID NO: 15, SEQ ID NO: 16 (protein, listed as Arabidopsis thaliana)
chain: MATEKTHQFHPSLHFVLFPFMAQGHMIPMIDIARLLAQRGVTITIVTTPHNAARFKNVLNRAIESGLAINILHVKFPYQEFGLPEGKENIDSLDSTELMVPFFKAVNLLEDPVMKLMEEMKPRPSCLISDWCLPYTSIIAKNFNIPKIVFHGMGCFNLLCMHVLRRNLEILENVKSDEEYFLVPSFPDRVEFTKLQLPVKANASGDWKEIMDEMVKAEYTSYGVIVNTFQELEPPYVKDYKEAMDGKVWSIGPVSLCNKAGADKAERGSKAAIDQDECLQWLDSKEEGSVLYVCLGSICNLPLSQLKELGLGLEESRRSFIWVIRGSEKYKELFEWMLESGFEERIKERGLLIKGWAPQVLILSHPSVGGFLTHCGWNSTLEGITSGIPLITWPLFGDQFCNQKLVVQVLKAGVSAGVEEVMKWGEEDKIGVLVDKEGVKKAVEELMGDSDDAKERRRRVKELGELAHKAVEKGGSSHSNITLLLQDIMQLAQFKN
Area-under-curve of the peak of glycosylated nootkatol (nootkatol+1 glucose) produced in vitro [2]: 1211635

B2: UGT73E1: UDP-glycosyltransferase, Stevia rebaudiana, SEQ ID NO: 13, SEQ ID NO: 14 (protein, listed as Stevia rebaudiana)
chain: MSPKMVAPPTNLHFVLFPLMAQGHLVPMVDIARILAQRGATVTIITTPYHANRVRPVISRAIATNLKIQLLELQLRSTEAGLPEGCESFDQLPSFEYWKNISTAIDLLQQPAEDLLRELSPPPDCIISDFLFPWTTDVARRLNIPRLVFNGPGCFYLLCIHVAITSNILGENEPVSSNTERVVLPGLPDRIEVTKLQIVGSSRPANVDEMGSWLRAVEAEKASFGIVVNTFEELEPEYVEEYKTVKDKKMWCIGPVSLCNKTGPDLAERGNKAAITEHNCLKWLDERKLGSVLYVCLGSLARISAAQAIELGLGLESINRPFIWCVRNETDELKTWFLDGFEERVRDRGLIVHGWAPQVLILSHPTIGGFLTHCGWNSTIESITAGVPMITWPFFADQFLNEAFIVEVLKIGVRIGVERACLFGEEDKVGVLVKKEDVKKAVECLMDEDEDGDQRRKRVIELAKMAKIAMAEGGSSYENVSSLIRDVTETVRAPH
Area-under-curve of the peak of glycosylated nootkatol (nootkatol+1 glucose) produced in vitro [2]: 1288384

B3: UGT85A1: UDP-glycosyltransferase, Arabidopsis thaliana, SEQ ID NO: 9, SEQ ID NO: 10 (protein, listed as Arabidopsis thaliana)
chain: MGSQIIHNSQKPHVVCVPYPAQGHINPMMRVAKLLHARGFYVTFVNTVYNHNRFLRSRGSNALDGLPSFRFESIADGLPETDMDATQDITALCESTMKNCLAPFRELLQRINAGDNVPPVSCIVSDGCMSFTLDVAEELGVPEVLFWTTSGCAFLAYLHFYLFIEKGLCPLKDESYLTKEYLEDTVIDFIPTMKNVKLKDIPSFIRTTNPDDVMISFALRETERAKRASAIILNTFDDLEHDVVHAMQSILPPVYSVGPLHLLANREIEEGSEIGMMSSNLWKEEMECLDWLDTKTQNSVIYINFGSITVLSVKQLVEFAWGLAGSGKEFLWVIRPDLVAGEEAMVPPDFLMETKDRSMLASWCPQEKVLSHPAIGGFLTHCGWNSILESLSCGVPMVCWPFFADQQMNCKFCCDEWDVGIEIGGDVKREEVEAVVRELMDGEKGKKMREKAVEWQRLAEKATEHKLGSSVMNFETVVSKFLLGQKSQD
Area-under-curve of the peak of glycosylated nootkatol (nootkatol+1 glucose) produced in vitro [2]: 1632282

B4: UGT76E1: UDP-glycosyltransferase, Arabidopsis thaliana, SEQ ID NO: 11, SEQ ID NO: 12 (protein, listed as Arabidopsis thaliana)
chain: MEELGVKRRIVLVPVPAQGHVTPIMQLGKALYSKGFSITVVLTQYNRVSSSKDFSDFHFLTIPGSLTESDLKNLGPFKFLFKLNQICEASFKQCIGQLLQEQGNDIACVVYDEYMYFSQAAVKEFQLPSVLFSTTSATAFVCRSVLSRVNAESFLLDMKDPKVSDKEFPGLHPLRYKDLPTSAFGPLESILKVYSETVNIRTASAVIINSTSCLESSSLAWLQKQLQVPVYPIGPLHIAASAPSSLLEEDRSCLEWLNKQKIGSVIYISLGSLALMETKDMLEMAWGLRNSNQPFLWVIRPGSIPGSEWTESLPEEFSRLVSERGYIVKWAPQIEVLRHPAVGGFWSHCGWNSTLESIGEGVPMICRPFTGDQKVNARYLERVWRIGVQLEGELDKGTVERAVERLIMDEEGAEMRKRVINLKEKLQASVKSRGSSFSSLDNFVNSLKMMNFM
Area-under-curve of the peak of glycosylated nootkatol (nootkatol+1 glucose) produced in vitro [2]: 1566336

B5: UGT76E12: UDP-glycosyltransferase, Arabidopsis thaliana, SEQ ID NO: 17, SEQ ID NO: 18 (protein, listed as Arabidopsis thaliana)
chain: MQVLGMEEKPARRSVVLVPFPAQGHISPMMQLAKTLHLKGFSITVVQTKFNYFSPSDDFTHDFQFVTIPESLPESDFKNLGPIQFLFKLNKECKVSFKDCLGQLVLQQSNEISCVIYDEFMYFAEAAAKECKLPNIIFSTTSATAFACRSVFDKLYANNVQAPLKETKGQQEELVPEFYPLRYKDFPVSRFASLESIMEVYRNTVDKRTASSVIINTASCLESSSLSFLQQQQLQIPVYPIGPLHMVASAPTSLLEENKSCIEWLNKQKVNSVIYISMGSIALMEINEIMEVASGLAASNQHFLWVIRPGSIPGSEWIESMPEEFSKMVLDRGYIVKWAPQKEVLSHPAVGGFWSHCGWNSTLESIGQGVPMICRPFSGDQKVNARYLECVWKIGIQVEGELDRGVVERAVKRLMVDEEGEEMRKRAFSLKEQLRASVKSGGSSHNSLEEFVHFIRTL
Area-under-curve of the peak of glycosylated nootkatol (nootkatol+1 glucose) produced in vitro [2]: 820053
